The results in this text go back to the supplement of paper PMC12042874.

± gives the uncertainty stated by the source.

This data set is described as follows: amyloid nucleation score (Sup35N fusion, yeast selection) (log enrichment); library NNK1; higher = more nucleation; inactive = no reads after selection. The method, boiled down:
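Peptides of 20 random codons, each fused to Sup35N, were expressed in psi-negative yeast. Cells were induced with 100 μM copper sulfate for 24 hours and grown 7 days at 30°C on medium lacking adenine and uracil, and plasmid inserts before and after selection were Illumina-sequenced. Nucleation scores are DiMSum log enrichments of output over input reads, centred on the mode score of non-aggregating sequences, and sequences under 100 input reads were excluded.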
VQWLHDMLVHFN displayed an amyloid nucleation score of -0.022 ± 1.
For VRADHYFYITHIKLKMSRV the value was “inactive”.
The substance VRDKSGPYYSSV had an amyloid nucleation score of 0.705 ± 0.4.
As for VRDYAGPFSFPYRSLRSEWQ, the figure is 0.193 ± 0.56; as for VRGPGDGFWLEDGTGSHSYR, -0.078 ± 0.42; as for VRHMWWVFPIFEISVRKCPV, -0.116 ± 1.
VRIILWTMDVIFRLMFTRDQ had an amyloid nucleation score of 0.41 ± 0.51.
For VRKCRVNYGENGFKYRTRTM the value was 0.739 ± 0.4; for VRLRDVILSKVATMSF, -0.363 ± 0.27; for VRMIT, 0.388 ± 0.64.
Regarding VRNNNFAYVNSVTDGVRYAR, the amyloid nucleation score entry was “inactive”.
As for VRRGFGPIITLYNFIISIWF, the figure is 0.895 ± 0.79.
VRRQRKVVLPTLMGNASGRP: the amyloid nucleation score was -0.183 ± 0.43.
With VRSFGWTEFKCVTFFQEWIS, the amyloid nucleation score is -0.029 ± 0.44.
For VRSWVLVLQSMCGLLSGGYG the value was -0.802 ± 0.96; for VRWNWSGPNELYLRLFCRLP, -0.508 ± 0.39; for VRYSL, -0.42 ± 0.35.
For VSDYFG the value was 0.229 ± 0.87.
As for VSFILGSNCWAYKTTPMGFL, the figure is 0.881 ± 0.39; as for VSLAAPGCGFGCQRSRGASQ, 0.013 ± 1.1.
In turn, VSLFLYISLSLRIVRRYVRV showed an amyloid nucleation score of 0.263 ± 0.27.
VSLNASPL registered an amyloid nucleation score of 0.902 ± 0.57.
For VSLRCWCWGGTHVKPQRGYV the value was 0.377 ± 0.77; for VSPRFGLSSMGNYQKVLVYI, -0.651 ± 1.7; for VSRVDCDNFGLRSRVSAL, 0.503 ± 0.37.
For VSRYLWIIGRGWVN the value was 0.412 ± 0.39; for VSTILYFDFVSVLPSALIEK, 3.23 ± 0.18.
For VSVFCTSFWASTKLYWTVSE, the amyloid nucleation score is -0.351 ± 0.6.
With VSYMQSVVHCGPKARCKWRC, the amyloid nucleation score was 0.964 ± 0.67.
As for VTLSLMCWNFALRFVSLGRS, the figure is 4.02 ± 0.071; as for VTLSTAIVTNEFMSDISTGY, -0.712 ± 0.52; as for VTMRLL, 0.968 ± 0.63.
For VTRCVAVAFSLGYLVIKCAL, the amyloid nucleation score was -0.243 ± 0.76.
As for VTSDLLD, the figure is 0.283 ± 0.4.
For VTSLYQDVT the value was -2.31 ± 2.4; for VTSWDMS, 0.016 ± 0.26; for VVADVAPR, -0.14 ± 0.34.
As for VVCQVNIHLNGVCLHRCLEE, the figure is 6.862 ± 0.059; as for VVCRPTWRWGLKEIYE, -0.133 ± 0.83; as for VVEKYSCIRESFHEGFG, -1.07 ± 1.7.
Substance VVFSWRIDSFGREEKGA showed an amyloid nucleation score of 0.349 ± 0.81.
For the substance VVGFYEWGQSREISSLRGGC, the amyloid nucleation score was 0.382 ± 0.58.
As for VVGVYYSCIYVGAYNLGSIP, the figure is 4.77 ± 0.1.
Substance VVLGCDVMLYRISFPFMIHS showed an amyloid nucleation score of -0.036 ± 0.47.
For VVLNIR the value was -0.232 ± 0.52; for VVLRSGINL, -0.561 ± 0.29; for VVMMWDI, “inactive”.
In turn, VVMRPIFYGNSWLVRPLRNM gave an amyloid nucleation score of -0.272 ± 0.45.
As for VVSRRVYDYTMDGLWGQ, the figure is 0.44 ± 0.36; as for VVSRWLRVFNFFEAKDFILV, -1.74 ± 2.7.
Substance VVSYTVQGGRSSHMANWG had an amyloid nucleation score of 0.35 ± 0.92.
As for VVVWVFHFYAC, the figure is 1.16 ± 0.71.
As for VVYHT, the figure is -0.368 ± 0.28.
As for VVYHVFFWELTNAKHNLPML, the figure is -1.17 ± 2.4; as for VWCRNAVDTMLIPMCTTPGY, 0.372 ± 0.6.
For VWIPYCLNFQSCNNHKLSLA, the amyloid nucleation score is -1.13 ± 1.
Consider VWLMFLSWLV, for which the amyloid nucleation score was -0.639 ± 0.78.
As for VWLWDLA, the figure is 1.25 ± 0.62.
Take VWRGRGCNHLYVMEEKLVGV: the amyloid nucleation score stood at 0.623 ± 0.41.
As for VWVKAMSFFWVIALPHAVYV, the entry is “inactive”; as for VYAYVSHLLIYVFSGRV, “inactive”; as for VYCCLNFLAFNFSWV, 6.308 ± 0.063.
As for VYCSLPRFRHLTSSILVTII, the figure is -0.07 ± 1.4; as for VYFGDLLLKTSYL, -0.747 ± 1.1.
The substance VYFVTFWSYVNFHV yielded an amyloid nucleation score of -0.208 ± 0.28.
For the substance VYILLRVRVWSFYVVVVSRF, the amyloid nucleation score was 0.484 ± 0.28.
For VYLGRFTPDGVMNYYNYSYV the value was -0.763 ± 1.4.
In turn, VYLSRHTNRG yielded an amyloid nucleation score of 1.53 ± 0.43.
With VYLVGASWPADVDEFGGRKD, the amyloid nucleation score is -0.402 ± 0.54.
As to VYMGFVCEIVVNKEKRVGTF, the amyloid nucleation score was found to be 0.008 ± 0.84.
For the substance VYRNAINSVIHFDGVVWGVG, the amyloid nucleation score result was “inactive”.
For VYRRIYNFECWSSKCMLGYP the value was -0.129 ± 1.6; for VYSGYSCCAWLLIWTSDGTD, 8.255 ± 0.048.
As for VYTWPTICNCQRL, the amyloid nucleation score was found to be 0.128 ± 0.36.
As for VYWNV, the figure is 1.1 ± 0.57.
As for VYWTVDIWVFFVTAC, the figure is 1.49 ± 0.13.
For VYYIVFPTTLSVDKFFPIWC the value was 2.26 ± 0.18.
For the substance WAILNDVMYHMWLNTFRTNV, the amyloid nucleation score was -0.295 ± 0.64.
As for WANRVCMCLRTSFYHL, the figure is 0.004 ± 0.62; as for WARESRIHTYVRVMFSGKWG, 0.517 ± 0.54; as for WAVRIVHMRVFFGLPVDW, -0.697 ± 0.58.
For WAWYLCSPESANFHNLHRLW the value was 0.324 ± 1.1; for WAYWRYVNENRSVCRRKVGF, -0.053 ± 0.31; for WCFVTHLLLCFLLDDKNFTW, “inactive”.
Substance WCGLARREKCRMPNGHRVHI came in with an amyloid nucleation score of -0.497 ± 0.48.
For WCLSG the value was -0.498 ± 0.48.
WCLWCVQVRFFFNVLFFK displayed an amyloid nucleation score of 0.95 ± 0.44.
The substance WCQKYNFRCSVLDLTFSLLW came in with an amyloid nucleation score of 6.71 ± 0.069.
Regarding WCSLGCNYTVLFTLLGMVNT, the amyloid nucleation score worked out at 0.116 ± 0.37.
As for WCVFSLLKCINSLAQHFKGS, the entry is “inactive”; as for WDHLRGLTCNVFIMIVKSFF, 1.4 ± 0.36; as for WDSLVLGKLYKLIFDQASPV, -1.31 ± 1.3.
As for WDWGMCTCRWRDSAASWGKR, the figure is 0.432 ± 0.34; as for WEIAE, 0.939 ± 0.19; as for WENLKVSNYDLYSVLPLYGP, 0.381 ± 0.45.
For WFFAAVWVLEFYEFR the value was -0.432 ± 0.3; for WFGSYWSIVVTTVRVIV, “inactive”.
Substance WFRIKGTGTLTPLKQHYSIN registered an amyloid nucleation score of -0.355 ± 0.56.
As for WFRRLVTFSYNGWSYLSD, the figure is -0.779 ± 0.73; as for WFRSGDNLRIM, 1.65 ± 0.55.
For WFRVGVPHN the value was 0.472 ± 1.2; for WFRYYYLFNRVRTFRERTNF, 0.094 ± 1.4.
For WFSAASGIMKEFSVG the value was -0.277 ± 0.36; for WFVGGTWQGAMNKGPTFVN, 0.078 ± 0.56; for WFVKLNFLCLCVNMDWHSTY, 0.352 ± 0.28.
On to WGAYTLKVGVDLIP, for which the amyloid nucleation score worked out at 0.195 ± 0.57.
Take WGSSLRRTYMFYLDFDGWVN: the amyloid nucleation score was -0.405 ± 1.7.
For WGSYS the value was 0.118 ± 1.1; for WHLSMRLDLPT, 0.363 ± 0.65; for WHTRDYLKRRL, 0.906 ± 0.75.
For WISETMFSVSAMSPVTSDAF the value was -0.713 ± 0.4; for WIVRPSGCGVTTR, -0.414 ± 0.69.
For WKMNGPFDFDPRRMISHDLK the value was -0.158 ± 0.42; for WLCTMLYVVVIRGCNVGNLE, -0.393 ± 0.65.
Substance WLEGLKYKLAVDGRFNQSWG gave an amyloid nucleation score of -0.086 ± 0.81.
Regarding WLGRYQLLWLALGWIITRRG, the amyloid nucleation score worked out at 1.51 ± 0.47.
The substance WLLNMENYWTVSTAGWSRWN came in with an amyloid nucleation score of 0.332 ± 0.46.
In turn, WLNSEAWDYLATLGLSFNYS registered an amyloid nucleation score of 0.761 ± 0.75.
For WLNWSSYRRTISKLVRGFFS the value was -0.295 ± 1.9; for WLVHFDHTPNTSL, -0.069 ± 0.53.
For WLVTDFVCHLITNTIYTLLL the value was “inactive”; for WNDRSGDVSLPCS, 0.027 ± 0.61.
For WNLNKYSFILALDGSYYVLN the value was 3.23 ± 0.24; for WNQTSPRQCAVTMSANVTGN, 0.575 ± 0.68; for WNRRGA, -0.054 ± 0.35.
With WNSRTSESC, the amyloid nucleation score amounted to 2.97 ± 0.15.
In the case of WNSVVHINSVNYCV, the amyloid nucleation score is 6.732 ± 0.059.
For WNYPYIFVGGPKKIGGGRRG the value was 0.584 ± 0.58; for WNYRGIKYF, 0.129 ± 0.39; for WNYSHEV, “inactive”.
As for WPTLIINDAFILRRRNMDSE, the figure is -0.223 ± 0.32; as for WPVLFFI, -1.46 ± 1.8.
For WQKSWR the value was 5.24 ± 0.074; for WRESSWLCMWERNVKVDWGR, -0.87 ± 1.7.
WRFMRFSSGRFNIGEYI gave an amyloid nucleation score of -0.431 ± 1.4.
As for WRLFIWDRGSLWFEISYYFR, the figure is -0.164 ± 0.3.
As for WRRNGNAGMSNQCWVRVKFK, the figure is 0.775 ± 0.46; as for WRYKIIRSR, 1.5 ± 0.4; as for WSDHDCIRPNFKYCMIRGRS, 0.531 ± 0.3.
As for WSISGELFTVVSDWPFCPIG, the entry is “inactive”; as for WSKCVCHLPR, -0.897 ± 1.6.
